B1: E3 ubiquitin-protein ligase NHLRC1 (Homo sapiens), Q6VVB1 (parent)
chain: MAAEASESGPALHELMREAEISLLECKVCFEKFGHRQQRRPRNLSCGHVVCLACVAALAHPRTLALECPFCRRACRGCDTSDCLPVLHLIELLGSALRQSPAAHRAAPSAPGALTCHHTFGGWGTLVNPTGLALCPKTGRVVVVHDGRRRVKIFDSGGGCAHQFGEKGDAAQDIRYPVDVTITNDCHVVVTDAGDRSIKVFDFFGQIKLVIGGQFSLPWGVETTPQNGIVVTDAEAGSLHLLDVDFAEGVLRRTERLQAHLCNPRGVAVSWLTGAIAVLEHPLALGTGVCSTRVKVFSSSMQLVGQVDTFGLSLYFPSKITASAVTFDHQGNVIVADTSGPAILCLGKPEEFPVPKPMVTHGLSHPVALTFTKENSLLVLDTASHSIKVYKVDWG
partner: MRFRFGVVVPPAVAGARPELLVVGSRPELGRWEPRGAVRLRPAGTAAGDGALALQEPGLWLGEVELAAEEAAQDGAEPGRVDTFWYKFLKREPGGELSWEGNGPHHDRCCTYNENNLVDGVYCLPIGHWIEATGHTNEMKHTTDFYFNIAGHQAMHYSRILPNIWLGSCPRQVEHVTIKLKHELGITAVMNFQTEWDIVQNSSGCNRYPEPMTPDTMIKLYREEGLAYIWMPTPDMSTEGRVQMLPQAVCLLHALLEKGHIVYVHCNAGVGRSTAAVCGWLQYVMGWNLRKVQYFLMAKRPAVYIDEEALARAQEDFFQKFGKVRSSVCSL

Variants of: B1
Settings: with epm2a_human EPM2A

effect of a mutation on the interaction | Variant
disrupting interaction | MAAEASESGPALHELMREAEISLLECKVCFEKFGHRQQRRPRNLSCGHVVCLACVAALAHPRTLALECPFCRRACRGCDTSDCLPVLHLIELLGSALRQSPAAHRAAPSAPGALTCHHTFGGWGTLVNPTGLALCPKTGRVVVVHDGRRRVKIFDSGGGCAHQFGEKGDAAQDIRYPVDVTITNDCHVVVTDAGDRSIKVFDFFGQIKLVIGGQFSLPWGVETTPQNGIVVTDAEAGSLHLLDVDFAEGVLRRTERLQAHPCNPRGVAVSWLTGAIAVLEHPLALGTGVCSTRVKVFSSSMQLVGQVDTFGLSLYFPSKITASAVTFDHQGNVIVADTSGPAILCLGKPEEFPVPKPMVTHGLSHPVALTFTKENSLLVLDTASHSIKVYKVDWG [L261P]
decreasing interaction | MAAEASESGPALHELMREAEISLLECKVCFEKFGHRQQRRPRNLSCGHVVCLACVAALAHPRTLALECAFCRRACRGCDTSDCLPVLHLIELLGSALRQSPAAHRAAPSAPGALTCHHTFGGWGTLVNPTGLALCPKTGRVVVVHDGRRRVKIFDSGGGCAHQFGEKGDAAQDIRYPVDVTITNDCHVVVTDAGDRSIKVFDFFGQIKLVIGGQFSLPWGVETTPQNGIVVTDAEAGSLHLLDVDFAEGVLRRTERLQAHLCNPRGVAVSWLTGAIAVLEHPLALGTGVCSTRVKVFSSSMQLVGQVDTFGLSLYFPSKITASAVTFDHQGNVIVADTSGPAILCLGKPEEFPVPKPMVTHGLSHPVALTFTKENSLLVLDTASHSIKVYKVDWG [P69A]
disrupting interaction | MAAEASESGPALHELMREAEISLLECKVCFEKFGHRQQRRPRNLSYGHVVCLACVAALAHPRTLALECPFCRRACRGCDTSDCLPVLHLIELLGSALRQSPAAHRAAPSAPGALTCHHTFGGWGTLVNPTGLALCPKTGRVVVVHDGRRRVKIFDSGGGCAHQFGEKGDAAQDIRYPVDVTITNDCHVVVTDAGDRSIKVFDFFGQIKLVIGGQFSLPWGVETTPQNGIVVTDAEAGSLHLLDVDFAEGVLRRTERLQAHLCNPRGVAVSWLTGAIAVLEHPLALGTGVCSTRVKVFSSSMQLVGQVDTFGLSLYFPSKITASAVTFDHQGNVIVADTSGPAILCLGKPEEFPVPKPMVTHGLSHPVALTFTKENSLLVLDTASHSIKVYKVDWG [C46Y]
decreasing interaction | MAAEASESGPALHELMREAEISLLECKVCFEKFGHRQQRRPRNLSCGHVVCLACVAALAHPRTLALECPFCRRACRGCDTSDCLPVLHLIELLGSALRQSPAAHRAAPSAPGALTCHHTFGGWGTLVNPTGLALCPKTGRVVVVHNGRRRVKIFDSGGGCAHQFGEKGDAAQDIRYPVDVTITNDCHVVVTDAGDRSIKVFDFFGQIKLVIGGQFSLPWGVETTPQNGIVVTDAEAGSLHLLDVDFAEGVLRRTERLQAHLCNPRGVAVSWLTGAIAVLEHPLALGTGVCSTRVKVFSSSMQLVGQVDTFGLSLYFPSKITASAVTFDHQGNVIVADTSGPAILCLGKPEEFPVPKPMVTHGLSHPVALTFTKENSLLVLDTASHSIKVYKVDWG [D146N]
